Key:
[1] = target: T1, SARS-CoV-2 receptor binding domain (RBD) (SARS-CoV-2, UniProt P0DTC2 319-591); assay: BLI, mAb on anti-human Fc probe, antigen in solution
[2] = target: T1, SARS-CoV-2 receptor binding domain (RBD); assay: BLI: mAb on anti-human Fc probe, dipped in the antigen
[3] = target: T1, SARS-CoV-2 receptor binding domain (RBD); assay: as above; remark: listed apart in the source
[4] = target: T1, SARS-CoV-2 receptor binding domain (RBD); assay: BLI, mAb on anti-human Fc probe, antigen in solution; remark: listed apart in the source
[5] = target: T1, SARS-CoV-2 receptor binding domain (RBD); assay: as above; remark: listed apart in the source
[6] = target: T1, SARS-CoV-2 receptor binding domain (RBD); assay: BLI: mAb on anti-human Fc probe, dipped in the antigen; remark: listed apart in the source
[7] = target: T1, SARS-CoV-2 receptor binding domain (RBD); assay: as above; remark: listed apart in the source
[8] = target: T1, SARS-CoV-2 receptor binding domain (RBD); assay: as above; remark: listed apart in the source
[9] = target: T1, SARS-CoV-2 receptor binding domain (RBD); assay: as above; remark: listed apart in the source
[10] = target: T1, SARS-CoV-2 receptor binding domain (RBD); assay: BLI, mAb on anti-human Fc probe, antigen in solution; remark: listed apart in the source
[11] = target: T1, SARS-CoV-2 receptor binding domain (RBD); assay: as above; remark: listed apart in the source
[12] = target: T1, SARS-CoV-2 receptor binding domain (RBD); assay: as above; remark: listed apart in the source
[13] = target: T1, SARS-CoV-2 receptor binding domain (RBD); assay: BLI: mAb on anti-human Fc probe, dipped in the antigen; remark: listed apart in the source
[14] = target: T1, SARS-CoV-2 receptor binding domain (RBD); assay: BLI, mAb on anti-human Fc probe, antigen in solution; remark: listed apart in the source
[15] = target: T1, SARS-CoV-2 receptor binding domain (RBD); assay: as above; remark: listed apart in the source
[16] = target: T1, SARS-CoV-2 receptor binding domain (RBD); assay: as above; remark: listed apart in the source
[17] = target: T1, SARS-CoV-2 receptor binding domain (RBD); assay: BLI: mAb on anti-human Fc probe, dipped in the antigen; remark: listed apart in the source
[18] = target: T1, SARS-CoV-2 receptor binding domain (RBD); assay: as above; remark: listed apart in the source

B1: CV17 (antibody, V domains shown)
VH: not shown
VL: QSALTQPASVSGSPGQSITISCTGTSSDVGSYNLVSWYQQHPGKAPKLMIYEGSKRPSGVSNRFSGSKSGNTASLTISGLQAEDEADYYCCSYAGSSTYVFGTGTKVTVL
notes: expressed as IgG
binding result [1]: no binding

B2: CV2-69 (antibody, V domains shown)
VH: EVQLLESGGGLVQPGGSLKLSCAASGFTFNSYAMTWVRQAPGKGLEWLSTISGSGGRTYYADSVKGRFAISRDNSKNTVFLQMSTLRAEDTAVYFCARDFYGLESFYPGIDSWGQGTLVTVSS
VL: SYELTQPSSVSVFPGQTARITCSGDVLEKKYARWFQQKPGQAPLLVIYKDSERPSGIPERFFGSSSGTTVTLTISGAQVEDEADYYCYSAADNNRGVFGGGTKLTVL
binding result [2]: no binding

B3: CV2-62 (antibody, V domains shown)
VH: EVQLVESGGGLVQPGGSLRLSCAASGFTFSSYEMNWVRQAPGKGLEWVSYISSSGSTIYYADSVKGRFTISRDNAKNSLYLQMNSLRAEDTAVYYCARVPRPPWDDFWSGYLYYFDYWGQGTLVTVSS
VL: DIQMTQSPSSLSASVGDRVTITCRASQGISNYLAWYQQKPGKVPKLLIYAASTLQSGVPSRFSGSGSGTDFTLTISSLQPEDVATYYCQKYNSAPPGFTFGPGTKVDIK
binding result [3]: no binding

B4: CV22 (antibody, V domains shown)
VH: EVQLVESGGGLVKPGGSLRLSCAASGFTFSSYSMNWVRQAPGKGLEWVSSISSSSSYIYYADSVKGRFTISRDNAKNSLYLQMNSLRAEDTAVYYCARDRESYDILTGYSMEGCFDYWGQGTLVTVSS
VL: QLVLTQSPSASASLGASVKLTCTLSSGHSSYAIAWHQQQPEKGPRYLMKLNSDGSHSKGDGIPDRFSGSSSGAERYLTISSLQSEDEADYYCQTWGTGIRVFGGGTKLTVL
notes: expressed as IgG
binding result [4]: no binding

B5: CV25 (antibody, V domains shown)
VH: QVQLQESGPGLVKPSQTLSLTCTVSGGSISSGDYYWSWIRQPPGKGLEWIGYIYYSGSTYYNPSLKSRVTISVDTSKNQFSLKLSSVTAADTAVYYCARDHHYDFWSGYSSYYYYGMDVWGQGTTVTVSS
VL: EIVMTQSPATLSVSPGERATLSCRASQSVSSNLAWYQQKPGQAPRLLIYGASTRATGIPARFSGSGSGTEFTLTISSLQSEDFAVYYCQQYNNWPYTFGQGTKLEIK
binding result [5]: no binding

B6: CV2-63 (antibody, V domains shown)
VH: QVQLVESGGGVVQPGRSLRLSCAASGFTFSSYAMHWVRQAPGKGLEWVAVISYDGDNKYYADSVKGRFTISRDNSKNTLYLQMNSLRAEDTAVYYCARDPTAVTGPFDYWGQGTLVTVSS
VL: SYELTQPLSVSVALGQTARITCGGNNIGSKNVHWYQQKPGQAPVLVIYRDSNRPSGIPERFSGSNSGNTATLTISRAQAGDEADYFCQVWDSSTVVFGGGTKLTVL
binding result [6]: no binding

B7: CV2-72 (antibody, V domains shown)
VH: EVQLVESGGGLVQPGGSLRLSCAASGFTVSTNYMSWVRQAPGKGLEWVSVIYSGGSTYYVDSVKGRFTISRDNSKNTLYLQMNSLRAEDTAVYYCASTNSGSYSHVFDIWGQGTMVTVSS
VL: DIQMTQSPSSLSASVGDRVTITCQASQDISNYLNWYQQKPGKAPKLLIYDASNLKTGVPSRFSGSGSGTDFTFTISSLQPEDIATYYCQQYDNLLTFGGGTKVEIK
binding result [7]: no binding

B8: CV2-67 (antibody, V domains shown)
VH: QVQLQESGPGLVKPSETLSLTCTVSGGSISSYYWSWIRQPPGKGLEWIGYIYYSGSTNYNPSLKSRVTISVDTSKNQFSLKLSSVTAADTAVYYCAGTYYDFWSGSTNYYGMDVWGQGTTVTVSS
VL: not shown
binding result [8]: no binding

B9: CV2-64 (antibody, V domains shown)
VH: QLQLQESGPGLVKPSETLSLTCTVSGGSISSSSYYWGWIRQPPGKGLEWIGSIYYSGSTYYNPSLKSRVTISVDTSKNQFSLKLSSVTAADTAVYYCARLSGIFGVVIIPGFFDYWGQGTLVTVSS
VL: not shown
binding result [9]: no binding

B10: CV2 (antibody, V domains shown)
VH: QVQLVESGGGVVQPGRSLRLSCAASGFTFSSYAMHWVRQAPGKGLEWVAVISYDGSNKYYADSVKGRFTISRDNSKNTLYLQMNSLRAEDTAVYYCARVRGSYYLFDYWGQGTLVTVSS
VL: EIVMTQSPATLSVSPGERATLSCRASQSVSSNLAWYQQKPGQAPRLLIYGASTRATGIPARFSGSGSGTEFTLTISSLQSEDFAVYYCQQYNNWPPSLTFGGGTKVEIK
notes: expressed as IgG
binding result [10]: no binding

B11: CV23 (antibody, V domains shown)
VH: QVQLVQSGAEVKKPGASVKVSCKASGYTFTSYAMHWVRQAPGQRLEWMGWINAGNGNTKYSQKFQGRVTITRDTSASTAYMELSSLRSEDTAVYYCARVWGYCSGGSCYVDAFDIWGQGTMVTVSS
VL: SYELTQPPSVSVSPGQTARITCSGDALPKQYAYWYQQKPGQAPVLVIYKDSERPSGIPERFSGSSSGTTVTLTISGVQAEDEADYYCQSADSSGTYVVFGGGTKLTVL
notes: expressed as IgG
binding result [11]: no binding

B12: CV15 (antibody, V domains shown)
VH: EVQLVESGGGLVQPGGSLRLSCAASGFTFSSYWMSWVRQAPGKGLEWVANIKQDGSEKYYVDSVKGRFTISRDNAKNSLYLQMNSLRAEDTAVYYCARDFNSYQLLWYYYYGMDVWGQGTTVTVSS
VL: QSALTQPRSVSGSPGQSVTISCTGTSSDVGGYNYVSWYQQHPGKAPKLMIYDVSKRPSGVPDRFSGSKSGNTASLTISGLQAEDEADYYCCSYAGSYTWVFGGGTKLTVL
notes: expressed as IgG
binding result [12]: no binding

B13: CV2-70 (antibody, V domains shown)
VH: QVQLVQSGAEVKKPGSSVKVSCKASGGTFSSYAITWVRQAPGQGLEWMGGIIPIFGTANYAQKFQGRLTITADDSTSTAYMELSSLKSEDTAVYYCARFRAYDSSGYGPDYWGQGTLVTVSS
VL: EIVLTQSPATLSLSPGERATLSCRASQSVSSYLAWYQQKPGQAPRLLIYDASNRATGIPARFSGSGSGTDFTLTISSLEPEDFAVYYCQQRSNWPPSITFGQGTRLEIK
binding result [13]: no binding

B14: CV32 (antibody, V domains shown)
VH: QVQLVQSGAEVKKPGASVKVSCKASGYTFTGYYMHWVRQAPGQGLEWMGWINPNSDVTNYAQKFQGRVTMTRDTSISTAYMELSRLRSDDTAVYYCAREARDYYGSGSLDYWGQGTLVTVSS
VL: QSVLTQPPSVSAAPGQKVTISCSGSSSNIGNNYVSWYQQLPGTAPKLLIYDNNKRPSGIPDRFSGSKSGTSATLGITGLQTGDEADYYCGTWDSSLSAVVFGGGTKLTVL
notes: expressed as IgG
binding result [14]: no binding

B15: CV21 (antibody, V domains shown)
VH: not shown
VL: EIVLTQSPATLSLSPGERATLSCRASQSVSSYLAWYQQKPGQAPRLLIYDASNRATGIPARFSGSGSGTDFTLTISSLEPEDFAVYYCQQRSNWPLTFGGGTKVEIK
notes: expressed as IgG
binding result [15]: no binding

B16: CV18 (antibody, V domains shown)
VH: QVQLVQSGAEVKKPGASVKVSCKVSGYTLTELSMHWVRQAPGKGLEWMGGFDPEDGETIYAQKFQGRVTMTEDTSTDTAYMELSSLRSEDTAVYYCATTSPIVGAITWFDPWGQGTLVTVSS
VL: QSVLTQPPSVSAAPGQKVTISCSGSSSNIGNNYVSWYQQLPGTAPKLLIYDNNKRPSGIPDRFSGSKSGTSATLGITGLQTGDEADYYCGTWDSSLSAGPVFGGGTKLTVL
notes: expressed as IgG
binding result [16]: no binding

B17: CV2-73 (antibody, V domains shown)
VH: QVQLQESGPGLVKPSETLSLTCTVSGGSVSSGSYYWSWIRQPPGKGLEWIGYIYYSGSTNYKYSLKSRVTISVDTSKNQFSLKLSSVTAADTAVYYCAREKGGTEWEFNDAFDIWGQGTMVTVSS
VL: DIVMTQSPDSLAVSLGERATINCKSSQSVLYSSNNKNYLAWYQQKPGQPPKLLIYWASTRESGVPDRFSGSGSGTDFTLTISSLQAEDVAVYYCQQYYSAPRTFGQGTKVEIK
binding result [17]: no binding

B18: CV2-74 (antibody, V domains shown)
VH: EVQLVQSGAEVKKPGESLRISCKGSGYSFTSYWISWVRQMPGKGLEWMGRIDPSDSYTNYSPSFQGHVTISADKSISTASLQWSSLKASDTAMYYCARQKRDGTTWAFDYWGQGTLVTASS
VL: not shown
binding result [18]: no binding

From patent US20230212266A1 (FRED HUTCHINSON CANCER CENTER, published 2023)
